# Assay results: a protein production outcome set (Wang et al. 2014)
# Assay: label from the status in PepcDB records
row,Sequence,protein production
1,MKVLFIHPFGSNWLGTGTDITTIFNLMPPLGLLSIAAFLEARGIGTEVIDCYATPMPAETLVAEVIRRRPDVVGFSCTTSSFLEGYSIAERIKEKAPGITTVFGGAHACSVGVGLLDTFPAIDYLVIGEGEQTFFELVTNLDHGGSGIPGVGYRENGKGVISALREHIANLDDLPFPAYHRLPQFPKRYILPLFSYPKAPNTSIISSRGCPYQCSYCDRSVFSRGFRFNSPEYIVEHLKMLNRDYGIRHVFFYDDLFTTDRARVARFCELKERERLPVTYNCIARLEHVDAELLRLLKRSGCWQVNFGIESGDPEVIKKHRKFYGLDEVQRKLQLVRDTGMRVKGLFMVGLPGETEESIRRTIDYALALPLDEINVTKFTPFPGAPLYATIREQGEFDENWPLMNCLNFVFVPHGMTREQLEGLYNEFISRFYRRSRIHWGYTKMLWKSPHSVATFLRHLPEILAFELKQKW,failed
2,MNIDLSAIFAQYEALVAETDALFERVRALHPDCVTCGLGCSDCCHAMFDLSLVEAMYLNGKFAASFDFGPERSAVLERASDADRHAYRIKRRMYRESEDGRPAEDILAEAARERVRCPLLGEGDACVLYAHRPITCRLYGIPTAIGGKGHTCGKTAFRAGEKYPTVAVDRIQDRLAALSKEIAVAVGSRFSELHQVYVPVSMALLTRYDDAYLGIGKPKRDD,failed
3,MLIDPIELYRYPEKWIKDRDAEKKVRSGLYILTEDGYLRRGITTGTTASAAAVAAIASLKEKVEKVKVSTPAGVDVEVEVEAEKGFARVRKFSGDHEFDVTNGIIFEAEVCETSGIFFGRGVGVKAGEKAVSRSAKLQILENFIKASREFNFSGGVRISVPDGEEVAKKTGNEKVGIKGGISILGTTGFVEPWCKKLVETKLKIAMQYHRIAITTGRKAWLYARKKFPEYQPFVFGVHIDEALKHPGEKIIVGFPGLLKIWAGSRDRIEERAREEGVRVVVIEDDMDSWVWDVQGTDH,not failed
4,MSKSEEKQELPLETSPYTKYEDIEDYKKNAYGTSGHQDVKPGHGGGTTDAPTPSGDAAPSAIDSANQKAKK,failed
5,MKIDVVTIFPAYLDPLRQSLPGRAIASGLVDLQVHDLRRWTYDVHHSVDDSPYGGGPGMVMKAPVWGEALDEICSAETLLVVPTPAGSLFDQATAQRWSAEQHLVFACGRYEGIDQRVAEDSARRMRVEEVSIGDYVLPGGESAAVVMIEAVLRLLTGVLGNPASHQEDSFSPELDRLLEGPSYTRPPSWRGLDVPEILLSGDHARIATWRREVSLRRTRERRPDLAPPE,failed
6,MPIHSLSLAGFRSIRKLTLELDALNVVVGANGCGKSNLYKSIQLLHAAAEGGLSAALAAEGGAQKAMWAGGTRRGDKARVPKRMILSARLDDYDYELQLGYPEPSCSLFALDPLVKEESLWLAGHGRRPSTLLLERRNQAAFLCGVEGERNSYPASLRAEESLFGQLAEPHRYPELSQVRETLRNWRFYHEFAIWPGSPLRAPQVGIRSPVLAHDGANLAAAFQTIVEIGDHELLHSVLTDAFPDSRFLVDAQQGRFQMLMRRDGLLRPLEAAELSDGTLRFLCLAVALLSPRPPAFMALNEPENSLHPALLPALARLIAEASRHSQLWVTSHSPELAERIRRHRPLKTFQLSLRDGETVLQDDLEHHHHHH,failed
7,VRGFLIVGNKAFTQPFSLNDLPGAGRMDVLCRCTSQALFISHGIRRDVEVYLLLLGPPSPPKSILIKGDEVRRMSPDERNVAGHIKKALAVECGKSWKKVHSGVYVSRKGLEELIEELSEKYSIIYLKEDGVDISNAQLPPNPLFVIGDHEGLTEEQEKVVERYAALKLSLSPLSLLAEQCVVIAHHHLDRLQF,not failed
8,MAIMASRKHLKRFKSPVHWPIHPKEYKWTVKPSPGPHAIENSLPLMIIVRDILKVADNAREARKIINSGEVLVDGRPRKNYKFPVGFMDVVSIPRTGDVYRVLPDERGRLVLHPIDEENAGFKLCKIVNKTTIKGGRTQLNLHDGRNYLSDDEFRVGDVVKLSIPEQEILERIPFEKDSLGLVTGGRHTGEIGKIKKINITRSSMPNTAVIETGAGKTFLTLKDYVFVIGKDESVISLPGGKLEHHHHHH,failed
9,MQSFWSKLKIESSKLLPSYFASVMAIGIFSIAFFLYNYNVLSYLLSYLSNVIYFALWVITVIRWVYYPRSYLNELKDLGRSPGFLSKVIATNTIGSEYMLIFKDYSLAYAFFMFGLILWIFYQYAVLSAISFNINDRNIEYVNGIWELIPASTQSVVDLGSILSPFHTYLYTLSLILFFIGVAQYIVMTSLILGRIVLKGLKPKDASGSYWIITGAAALSALAGIDLLIYLNEVNLQSAYIGDLRTIVLTFIILLWSTGTWWIPWLIYMGIWKHVINRVPLLVYDPQFWGAVFPMGMYATSSFLLIRYVNLNIPMLIPDIFILVGSVALVYQTSLMLYNVVKKLVD,failed
10,TTAKPQQIQALMDEVTKQGNIVRELKAQKADKNEVAAEVAKLLDLKKQLAVAEGKPPEAPKGKKKK,not failed
11,MVLLTMTKRLFKGLLAVSLAVSLHGGEVKEKKPVKPVKEDPQELAAKRVEAFSRFSNVVSEIEKKYVDKISISEIMTKAIEGLLSNLDAHSAYLNEKKFKEFQAQTEGEFGGLGITVGMRDGVLTVIAPLEGTPAYKAGVKSGDNILKINNESTLSMSIDDAINLMRGKPKTPIQITVVRKNEPKPLVFNIIRDIIKLPSVYVKKIKETPYLYVRVSGFDKNVTKSVLEGLKANPKAKGIVLDLRGNPGGLLNQAVGLSNLFIKEGVLVSQKGKNKEENLEYKANGRAPYTNLPIAVLVNGGSASASEIVAGALQDHKRAVIIGEKTFGKGSVQMLLPVNKDEAIKITTARYYLPSGRTIQAKGITPDIVIYPGKVPENENKFSLKEADLKHHLEQELKKIDDKTPNSKEADKDKKNEEEKEITPKMINDDIQLKTAIDSLKTWSIVDEKMDEKAPKKK,failed
12,QSQGGGSVTKKRKLESSESRSSFSQHARTSGRVAVEEVDEEGKFVRLRNKSNEDQSMGNWQIRRQNGDDPLMTYRFPPKFTLKAGQVVTIWASGAGATHSPPTDLVWKAQNTWGCGSSLRTALINSTGEEVAMRKLVR,not failed
13,MDAAVVGGGPAGSLAAILLGKSYDVALFEEHQSAGFPVQCAGLVSDKCYKKLKEHCKAEKAIENHIKGAFFFSPSGKIVLEGRGEAVVVERKILDRLLFERAAERAKVFVKEKARLNGFRIITPSREVSAEKIIGADGVNSTVREHFGFPTMGFFTAVQVEAKFEPLDENCVELYFGGNWSDSFFAYAIPLGDTARIGVVSRSSPLRYLENLMKRHPSVSGRVEGSAVELNAGAIPDRLVKFSKRDVALIGDAAGMVKPYTGGGLYYHLIAAEKLAESFPDLKGYEKSYLKEMGREYRFGYAVRKLYSLPDEKLEQLFSAMADFDFRGVHMDSPSTLIRKAADISFRLLRKPSLAFYLVKSLFLLEHHHHHH,failed
14,MSQSSDASEKEKPKEKKSQEELEKELDKELKKGGEPKTKKDDQIHKIGETFKAGHTNFTVNKVDRVQKGEYMNVGGAVNEETKTIKDDEERLIIEVTMENIGEDSISYNFIGFDLRDKNDQSVRPVFSIEEKGRILMGGTLVSGKKVTGVLSYVIPKGEQKHYTLVYNPFLADTNSSNTEERVKDDIDYLVKLDLEHHHHHH,not failed
15,MILNILLNLAIFIIPSLAVWNQIILYIFGKSGDIANLILLNNESNLPKLSIIVPTKGERIEVIQGLIDNIHEAIWDRNKLEIIIVSDDEQEYFDKLLSTLIIPPDLDVRIFRREKKLGYKSGALAFGLQKSTGDLILTLDVDARIEKDSLIKAYNHMVNLGCDAITMEWHGYSNISTSLAKALMVSTVLTSKSILRGRDKLGLKVLPIGCGTIYKRSALEAVNGWDYKMIQDDYELGARLINKGFKVCASSSPVYVEVPDNLIAFYVQQTRWAMGTMEVLYWRFKYIISSDIKLWQKLEIIAYLSQYIPIILTFISAIIFAIAGFVGIRLSMNLPMFIIWAITLSIYASIFVNSAKKSGIDTVTAIKALGRLSAYTVGISPFLLIGTINAFKKTRTYIVTPKGKKAKSNIGYPILAFGVFFILSAFLYMFRGDFLTFIWLAYYSIAFLYTFIAYIKGL,failed
16,MELKVWVDGVQRIVCGVTEVTTCQEVVIALAQAIGRTGRYTLIEKWRDTERHLAPHENPIISLNKWGQYASDVQLILRRTGP,not failed
17,MFVTLQTVQESEKEILRNLYALYLHDLSTFTSNITIGANGFFEYEDLHMFWVNDGITPYFIKSDNEIVGFLLLLERPFLKKENDFGINDIFILNQYKGKGIGKQVIESLLKEKRGQYFVIELVKNVPAVSFWKKVYRELNIEFDEKIQLIDDEECLVQTFEI,failed
18,MSIEPVFILVRPQMGENIGAAARAMLNFGLGRLRIVDPRDGWPNPKAVAMASGAGRLLDHAGLFPTVAEAIRDCDYVFATTARGRELTKPVMTPERAMAHGRALTGEGRRVGILFGPERTGLENEDVALANAIVTVPVNPEFFSLNLAQCVLLLAYEWRRQHDETPPEVIDMARVDFASGLEVEKLGD,failed
19,MKITGTVVKLGIVSVVLLFFTVMIIVIFGQMRFDRTNGYTAEFSNVSGLRQGQFVRASGVEIGKVKALHLVDGGRRVRVEFNIDRSVPLYQSTTAQIRYSDLIGNRYVELKRGEGKGANDLLPPGGLIPLSRTSPALDLDALIGGFKPVFRALDPAKVNNIANALITVFQGQGGTINDTLDQTAQLTSQIAERDQAIGEVVKNLNIVLDTTVKHRKEFDETVNNLENLITGLRNHSDQLAGGLAHISNGAGTVADLLAENRTLVRKAVSYLDAIQQPVIDQRVELDDLLHKTPTALTALGRANGTYGDFQNFYLCDLQIKWNGFQAGGPVRTVKLFSQPTGRCTPQ,failed
20,MFYILNNVLKNIKTLDNVKSKFFLKDSFLKNKLKANNLDDNLSSHIFFNEIFVSLRDDEKKEEHKKVLLFNKVRNDKKHRKRAFQKRGYWKKMHYFIRKNNMMSYAFKVQNIDYEKIKKLKRGEVYSN,failed
21,ARYLDVTSRRDPEHSHRTYYVTGQVFFASADRFTASFDLREKVETLAIDLREAHFWDITAVAALDKVVLKLRRAGISVDVVGMNRATATLVDRFGVHDKPDGIDSLMGH,failed
22,MQFIYSIIGILLVLGIVYAISFNRKSVSLSLIGKALIVQFIIALILVRIPLGQQVVSVVSTGVTKVINCGQAGLNFVFGSLADSGAKTGFIFAIQTLGNIVFLSALVSLLYYVGILGFVVKWIGKGVGKIMKSSEVESFVAVANMFLGQTDSPILVSKYLGRMTDSEIMVVLVSGMGSMSVSILGGYIALGIPMEYLLIASTMVPIGSILIAKILLPQTEPVQKIDDIKMDNKGNNANVIDAIAEGASTGAQMAFSIGASLIAFVGLVSLINMMLSGLGIRLEQIFSYVFAPFGFLMGFDHKNILLEGNLLGSKLILNEFVSFQQLGDLIKSLDYRTALVATISLCGFANLSSLGICVSGIAVLCPEKRGTLARLVFRAMIGGIAVSMLSAFIVGIVTLF,failed
23,MAQENPLWMRHCAISPDGTTIAFTYKGDIFTVPVSGGKATQITTNPAFDTTPIWSPDSKQIAFASDRMGSMDVFIVSKDGGEPRRLTTFSGGETPVAFTDAGHILFTADIMPSTEDAGFPSNGQFQQIYQIPVSGGRPVMFSSMPMECISINKEGTILYQDKKGYEDYWRKHQKSPIARDIWMLRPGQTPRYEKQTTFIGEDREPVWAPDGKSFYYLSEENGTFNVYQRTPGSDTSKQVTHHKQHPVRFLEHHHHHH,failed
24,MLTDMQRDSASSSTVTTEQIVYGALPLTTINEPECRAIAITSINGSATLSGVSGPMGDQTDADLLIQLRGWADAIVVGAETARKENYGPVVLPHGIKNQRQKLGRCGLPKLTLLSKSLYFDFSSELFSPDLPSELSPLVITQQPANNSEQWDQRLQKLIDVGVEVIVAPTSTNPLKIAFDALHARRLKKISIEGGPSVYRQALSLGIVDRLHLTIAPNIICPVESPLFGKISDDSFTTRLVLEMLSSSPNGLIFSRYKVIRDTLGNPTQ,not failed
25,MVRLAEERDFPGFLGLAGQVEHWFGPMVEDAGFHEAVREHIRRGAALVAVAPDPDTDAGPGAGTGTELLGGLLFGTDTDADAPVHHVHWLVVSRQARAGGVGRALMRDAMRRWVREPAGVEVVTFGADHPGATESGARAFYERLGFTPAEVVAPGPEGGSRQLFRRGAQVRPTRGEHVTTYTGGPA,failed
